Biological target: T1, TGFβ-1 (UniProt P01137 279-390)
T1 construct: Antigen coated on ELISA plates at 1 µg/ml
Test: method not stated; value listed for the panel of existing phage-display scFv

T1 sequence (P01137 279-390 limits assumed): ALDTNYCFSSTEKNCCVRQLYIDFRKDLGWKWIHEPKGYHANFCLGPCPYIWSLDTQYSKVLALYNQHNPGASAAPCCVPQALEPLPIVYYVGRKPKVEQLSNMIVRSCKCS

Kd: 8 nM
B1: ScFv 1 (scFv, V domains shown)
VH: EVQLVESGGGLVQPGGSLRLSCAASGYAFTNYLIEWVRQAPGKGLEWVGVINPGSGGSNYNEKFKGRATISADNSKNTLYLQMNSLRAEDTAVYYCARSGGFYFDYWGQGTLVTVSS
VL: DIQMTQSPSSLSASVGDRVTITCRASQSVLYSSNQKNYLAWYQQKPGKAPKLLIYWASTRESGVPSRFSGSGSGTDFTLTISSLQPEDFATYYCHQYLSSDTFGQGTKVEIK

Source: patent US20060177862A1 (CAMBRIDGE ANTIBODY TECHNOLOGY, published 2006)
